Laboratory results as given in patent US20230340152A1 (published 2023).
Where a chain is given by its changes, count along the chain named. Names and notes keep the numbering of the source.

Columns and labels:
Experiment in all cases: SPR (ProteOn), CD73 variant immobilized on HTG chip
[1] = target: T1, Human CD73 V144K+K180A, His-tagged (human, UniProt P21589 27-549)
T1 chain: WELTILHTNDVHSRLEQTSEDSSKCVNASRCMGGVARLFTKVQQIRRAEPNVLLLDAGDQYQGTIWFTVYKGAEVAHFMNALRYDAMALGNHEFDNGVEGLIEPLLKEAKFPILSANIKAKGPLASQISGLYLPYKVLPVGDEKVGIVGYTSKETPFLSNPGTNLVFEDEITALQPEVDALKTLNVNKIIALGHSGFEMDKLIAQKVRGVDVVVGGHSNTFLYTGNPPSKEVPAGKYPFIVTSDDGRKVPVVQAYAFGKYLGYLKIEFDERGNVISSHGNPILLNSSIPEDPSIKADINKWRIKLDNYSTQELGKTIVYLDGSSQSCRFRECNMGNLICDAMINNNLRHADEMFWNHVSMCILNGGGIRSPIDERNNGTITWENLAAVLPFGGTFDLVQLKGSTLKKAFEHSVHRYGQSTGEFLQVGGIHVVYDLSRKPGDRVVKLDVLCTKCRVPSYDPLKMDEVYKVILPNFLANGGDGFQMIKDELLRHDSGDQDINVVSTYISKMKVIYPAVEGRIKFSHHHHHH
Method: (§1) Binding of MEDI9447 to wild-type and mutant CD73 proteins was measured by surface plasmon resonance (SPR) using a ProteOn instrument (BioRad). CD73 crude cell supernatant protein samples were diluted to 3 µg/ml in PBS, 0.005% Tween-20, pH 7.4 (BioRad) and immobilized to ~400 RU on a HTG tris-NTA sensor chip (BioRad) pre-activated with 10 mM NiSO₄, 10 mM MES, pH 6.0 (BioRad). An equivalently diluted crude cell supernatant sample from non-transfected cells was included as a reference channel control. Sensorgrams were recorded by flowing two-fold dilutions of MEDI9447 prepared in PBS, 0.005% Tween-20, pH 7.4, ranging from 5 nM to 0.31 nM. […] Antibody binding was measured at a flow rate of 100 µL/min with a 3 min association phase and 20 min dissociation phase. The sensor chip surface was regenerated between each run by an 800 s injection of 300 mM EDTA, pH 8.5 (BioRad) at a flow rate of 30 µL/min. Binding kinetics were analyzed using the ProteOn data analysis software. Double referencing was performed and, unless noted otherwise, a 1:1 Langmuir binding model was utilized to fit the data. Some CD73 variants containing mutations within the amino acid region 171-188 fit poorly to a 1:1 model (i.e., Chi² values >10% of Rmax). Where noted, these variants were fit with a heterogenous antigen (2:1) model. […] Due to the assay format (antigen immobilized) and the dimeric state of CD73, KD values may be exaggerated due to avidity effects. However, it is not anticipated that this impacts ranking of MEDI9447 binding to the different CD73 variants.

[2] = target: T2, Human CD73 V144K, His-tagged (human, UniProt P21589 27-549)
T2 sequence: T1 chain with A180K
Method: as §1

[3] = target: T3, Human CD73 K180A+N185G, His-tagged (human, UniProt P21589 27-549)
T3 chain: T1 chain with K144V, N185G
Method: as §1

[4] = target: T4, Human CD73 V144K+N185G, His-tagged (human, UniProt P21589 27-549)
T4 chain: T1 chain with A180K, N185G
Method: as §1

B1: MEDI9447 (antibody, human IgG1, lambda, V domains shown)
VH: EVQLLESGGGLVQPGGSLRLSCAASGFTFSSYAYSWVRQAPGKGLEWVSAISGSGGRTYYADSVKGRFTISRDNSKNTLYLQMNSLRAEDTAVYYCARLGYGRVDEWGRGTLVTVSS
VL: QSVLTQPPSASGTPGQRVTISCSGSLSNIGRNPVNWYQQLPGTAPKLLIYLDNLRLSGVPDRFSGSKSGTSASLAISGLQSEDEADYYCATWDDSHPGWTFGGGTKLTVLG
notes: Human IgG1-TM (L234F, L235E, P331S), lambda light chain; also called clone 10.3 antibody; 73combo3
koff [1]: 0.00425 s⁻¹
kon [1]: 1.58e+06 M⁻¹ s⁻¹
koff [2]: 9.18e-05 s⁻¹
kon [2]: 1.13e+06 M⁻¹ s⁻¹
binding result [3]: no binding
binding result [4]: no binding
